Laboratory results taken from patent US20190002511A1 (NATIONAL UNIVERSITY OF SINGAPORE, published 2019).
Like-named read-outs stand apart in the source and are kept apart here. Square brackets hold non-standard residues; d marks the D form. Ends that are not written are not given here. β3hR = N=C(N)NCCC[C@H](N)CC(=O)O

Legend:
[1] = biological target: T1, human α-thrombin (recombinant) (human, UniProt P00734 328-363; P00734 364-622); experiment: cell-based or functional assay
[2] = biological target: T1, human α-thrombin (recombinant); experiment: thrombin amidolytic assay with S2238, tight-binding fit
Experimental: A and C. […] B and D. Residual thrombin amidolytic activities in presence of UV003 and UV004 were measured at different concentrations of S2238 and their Kᵢ were determined.
(§1) Thrombin amidolytic activity assays for all peptides were performed in 96-wells microtiter plates in 50 mM Tris buffer (pH 7.4) containing 100 mM NaCl and 1 mg/ml bovine serum albumin. […] The rates of formation of p-nitroaniline were followed by measuring the absorbance at 405 nm for 10 min with a Tecan InfinitePro M200 microplate reader from Tecan (Mannedorf, Switzerland). Dose-response curves were fitted using the GraphPad Prizm software (San Diego, Calif., USA) to calculate IC50 values and Hill coefficients. To measure the inhibitory constants, different concentrations of S2238 were used and the residual velocities were determined using the Morrison's tight binding equation. Inhibition of thrombin fibrinogenolytic activity of peptides were tested by measuring absorbance at 650 nm using a Sunrise microplate reader from Tecan (Mannedorf, Switzerland) as described previously [Koh C Y, et al., J Biol Chem 282: 29101-13 (2007)].

[3] = biological target: T1, human α-thrombin (recombinant); experiment: cell-based or functional assay; remark: listed apart in the source
[4] = biological target: T1, human α-thrombin (recombinant); experiment: cell-based or functional assay; remark: listed apart in the source
[5] = biological target: T1, human α-thrombin (recombinant); experiment: thrombin amidolytic assay with S2238, Morrison tight-binding fit, non-competitive
Experimental: (§3) Each data point is the mean±S.D. of at least three independent experiments. […] Each data point is the mean±S.D. of at least three independent experiments. […] Each data point is the mean±S.D. of at least three experiments.
(§4) Thrombin amidolytic activity assays for all peptides were performed in 96-wells microtiter plates in 50 mM Tris buffer (pH 7.4) containing 100 mM NaCl and 1 mg/ml bovine serum albumin. […] Dose-response curves were fitted using the GraphPad Prizm software (San Diego, Calif., USA) to calculate IC50 values and Hill coefficients. To measure the inhibitory constants, different concentrations of S2238 were used and the residual velocities were determined using the Morrison's tight binding equation.

[6] = biological target: T1, human α-thrombin (recombinant); experiment: comparison of Ki values
Experimental: as §4

[7] = biological target: T1, human α-thrombin (recombinant); experiment: thrombin amidolytic assay with S2238, double reciprocal (Lineweaver-Burke) plot
Experimental: (§2) Each data point is the mean±S.D. of at least three independent experiments.
as §1, with “To measure the inhibitory constants, different concentrations of S2238 were used and the residual velocities were determined using the Morrison's tight binding equation.” left out, “(2007)]. […] After different incubation times, reactions were quenched with 1% TFA (pH 1.8) and loaded onto a Jupiter Proteo column (4 μm, 90 Å, 100×1.0 mm) attached to a Dionex nano-HPLC system from Thermo Fisher Scientific (Waltham, Mass., USA) and eluted using an acetonitrile gradient with 0.05% TFA and 99.95% MilliQ water as eluent A and 0.05% TFA, 19.95% MilliQ water and 80% ACN as eluent B. Masses of all peaks were measured to identify cleavage products, which were subsequently quantified by integrating the peaks and calculating the area under the curves. […]” for “(2007)].”

[8] = biological target: T1, human α-thrombin (recombinant); experiment: comparison of Ki values, thrombin amidolytic assay
Experimental: as §4

[9] = biological target: T1, human α-thrombin (recombinant); experiment: thrombin amidolytic assay with S2238, Morrison tight-binding fit, competitive
Description: Data were fitted to the Morrison tight binding equation using GraphPad Prizm software. Each data point is the mean±S.D. of at least three experiments.
as §3

bovine trypsin = bovine trypsin (bovine, UniProt P00760 24-246); experiment: cell-based or functional assay
Chain of bovine trypsin (P00760 24-246): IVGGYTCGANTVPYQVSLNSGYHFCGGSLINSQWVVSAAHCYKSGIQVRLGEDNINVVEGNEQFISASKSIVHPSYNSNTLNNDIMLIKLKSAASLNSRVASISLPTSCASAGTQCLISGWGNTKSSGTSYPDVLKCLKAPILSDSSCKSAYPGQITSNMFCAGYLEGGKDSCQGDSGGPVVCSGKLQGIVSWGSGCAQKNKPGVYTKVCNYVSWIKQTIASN

fIXa = experiment: cell-based or functional assay
fXIa = experiment: cell-based or functional assay
fXa = experiment: cell-based or functional assay
Chain of fXa (P00742 whole entry): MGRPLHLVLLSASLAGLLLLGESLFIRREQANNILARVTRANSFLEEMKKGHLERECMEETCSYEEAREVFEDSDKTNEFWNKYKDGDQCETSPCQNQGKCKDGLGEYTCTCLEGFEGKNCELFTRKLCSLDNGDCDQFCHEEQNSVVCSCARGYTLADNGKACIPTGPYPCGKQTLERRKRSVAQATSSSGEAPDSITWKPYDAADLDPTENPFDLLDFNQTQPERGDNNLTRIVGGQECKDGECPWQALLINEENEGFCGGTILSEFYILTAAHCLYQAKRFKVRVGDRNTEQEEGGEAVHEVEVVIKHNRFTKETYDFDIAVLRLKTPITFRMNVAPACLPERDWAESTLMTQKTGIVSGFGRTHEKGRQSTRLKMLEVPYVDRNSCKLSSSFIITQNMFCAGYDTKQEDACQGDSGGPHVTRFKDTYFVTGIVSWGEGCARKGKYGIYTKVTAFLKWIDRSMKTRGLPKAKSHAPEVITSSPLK

bovine chymotrypsin = bovine chymotrypsin (bovine, UniProt P00766 1-245); experiment: cell-based or functional assay
tPA = experiment: cell-based or functional assay
fVIIa = experiment: cell-based or functional assay
Chain of fVIIa (P08709 whole entry): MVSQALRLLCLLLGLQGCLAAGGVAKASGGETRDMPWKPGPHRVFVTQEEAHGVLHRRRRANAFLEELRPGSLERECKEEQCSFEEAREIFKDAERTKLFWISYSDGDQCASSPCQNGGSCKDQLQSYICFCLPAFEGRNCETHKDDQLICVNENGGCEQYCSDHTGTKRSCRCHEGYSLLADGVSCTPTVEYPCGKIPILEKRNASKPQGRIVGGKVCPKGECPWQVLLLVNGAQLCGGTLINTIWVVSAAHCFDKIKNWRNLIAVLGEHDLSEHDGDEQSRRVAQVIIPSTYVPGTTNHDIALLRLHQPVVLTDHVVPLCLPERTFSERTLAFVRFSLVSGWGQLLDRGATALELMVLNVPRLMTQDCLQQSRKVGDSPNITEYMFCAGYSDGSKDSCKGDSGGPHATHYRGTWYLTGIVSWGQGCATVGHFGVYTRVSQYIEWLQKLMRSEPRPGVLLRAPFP

plasmin = experiment: cell-based or functional assay
APC = experiment: cell-based or functional assay
kallikrein = experiment: cell-based or functional assay
urokinase = experiment: cell-based or functional assay
fXIIa = experiment: cell-based or functional assay
[10] = biological target: T1, human α-thrombin (recombinant); experiment: cell-based or functional assay; remark: listed apart in the source
[11] = biological target: T1, human α-thrombin (recombinant); experiment: thrombin amidolytic assay with S2238; column headed Affinity (nM)
Experimental: Each data point is the mean±S.D. of at least three experiments. […] Data were fitted to the Morrison tight binding equation using GraphPad Prizm software. Each data point is the mean±S.D. of at least three experiments.
as §4

[12] = biological target: T1, human α-thrombin (recombinant); experiment: thrombin amidolytic assay with S2238, tight-binding fit; remark: listed apart in the source
Experimental: as §2
as §1, with “(2007)]. […] After different incubation times, reactions were quenched with 1% TFA (pH 1.8) and loaded onto a Jupiter Proteo column (4 μm, 90 Å, 100×1.0 mm) attached to a Dionex nano-HPLC system from Thermo Fisher Scientific (Waltham, Mass., USA) and eluted using an acetonitrile gradient with 0.05% TFA and 99.95% MilliQ water as eluent A and 0.05% TFA, 19.95% MilliQ water and 80% ACN as eluent B. Masses of all peaks were measured to identify cleavage products, which were subsequently quantified by integrating the peaks and calculating the area under the curves. To measure the effect of different pre-incubation times on the thrombin inhibitory activity, amidolytic assays were performed for various incubation times (up to 36 h).” for “(2007)].”

SDEAVRAEPKMHKTAPPGDFEEIPDDAIEE [UV004]
IC50, inhibition of thrombin amidolytic activity [1]: 0.46 nM | Ki [2]: 0.00455 nM

B1: UV007 (peptide)
peptide: CDEAVRAIPKMYSTAPPGDFEEIPDDAIEE
notes: Ultravariegin with Cys at the N-terminus
IC50, inhibition of thrombin amidolytic activity [1]: 0.601 nM | Ki [2]: 0.00627 nM

SDEAVRAIPKMYSQAPPGDFEEIPDDAIEE (Ultravariegin Thr14Gln) [UV013]
IC50, inhibition of thrombin amidolytic activity [1]: 0.341 nM

SDEAVRAIPKMYSTAPPGDFEEIPDDEIEE (Ultravariegin Ala27Glu) [UV012]
IC50, inhibition of thrombin amidolytic activity [1]: 0.94 nM

B2: IS20 (peptide)
peptide: ISKQGLGGDFEEIPSDEIIE
notes: Avathrin residues 11-30; also called C-terminal cleavage product of avathrin
IC50, inhibition of thrombin amidolytic activity, 0 min [3]: 12.4 nM | IC50, inhibition of thrombin amidolytic activity, 10 min pre-incubation [3]: 22.7 nM | IC50, inhibition of thrombin amidolytic activity (S2238) [4]: 12.2 nM | Ki [5]: 5.76 nM

SGGHQTAVPKISKQGPPGDFEEIPSDEIIE [avathrin L16P, G17P]
fold drop in activity against avathrin (amidolytic IC50) [3]: > 25 fold | IC50, inhibition of thrombin amidolytic activity (S2238) [4]: 181 nM

B3: UV011 (peptide)
peptide: MYSTAPPGDFEEIPDDAIEE
notes: also called C-terminal cleavage product of ultravariegin
fold better Ki than the avathrin C-terminal cleavage product IS20 [6]: ~4 fold | fold better Ki than the variegin C-terminal cleavage product MH22 [6]: ~10 fold | IC50, inhibition of thrombin amidolytic activity [1]: 1.66 nM | Ki [2]: 1.39 nM

SDEAVRAIPKMYSTAPPGDFEEIPDDAIEECA (Ultravariegin with C-terminal CA) [UV008]
IC50, inhibition of thrombin amidolytic activity [1]: 1.82 nM | Ki [2]: 0.0786 nM

SGGHQTAVP[β3hR]ISKQGLGGDFEEIPSDEIIE [β-avathrin]
fold loss of potency against avathrin (amidolytic IC50) [3]: > 100 fold | IC50, inhibition of thrombin amidolytic activity (S2238) [4]: 332 nM | Ki [7]: 32 nM

SDEAVRAIPKMYSTAPPGDFEEIPEEYLDDES [UV005]
IC50, inhibition of thrombin amidolytic activity [1]: 0.91 nM | fold drop in affinity against ultravariegin [8]: ~3.6 fold | Ki [2]: 0.016 nM

SDQGDVAEPKMYSTAPPFDFEAIPEEYLDDES [Variegin YS]
IC50, inhibition of thrombin amidolytic activity [1]: 3.16 nM | Ki [2]: 0.671 nM

MYSTAPPGDFEEIPDDAIEEGCCC (UV011 with C-terminal GCCC) [UV014]
IC50, inhibition of thrombin amidolytic activity [1]: 1.98 nM | Ki [2]: 2.47 nM

B4: QT26 (peptide)
peptide: QTAVPKISKQGLGGDFEEIPSDEIIE
notes: Avathrin without its four N-terminal residues
IC50, inhibition of thrombin amidolytic activity, 10 min pre-incubation [3]: 13.5 nM | IC50, inhibition of thrombin amidolytic activity (S2238) [4]: 8.94 nM | Ki [9]: 0.76 nM

B5: avathrin (Amblyomma variegatum thrombin inhibitor) (peptide)
peptide: SGGHQTAVPKISKQGLGGDFEEIPSDEIIE
notes: Synthetic 30-residue peptide; one repeat of precursor protein BAD29729
IC50, inhibition of the amidolytic activity of clot-bound thrombin (S2238) [3]: 1740 nM | IC50, inhibition of thrombin amidolytic activity, 10 min pre-incubation [3]: 4.86 nM | percent of thrombin amidolytic activity inhibited at 24 h of incubation (avathrin in about 30-fold excess) [3]: > 45% | percent inhibition of amidolytic activity at 100 µM avathrin (bovine trypsin): < 30% | percent inhibition of amidolytic activity at 100 µM avathrin (fIXa): < 30% | percent inhibition of amidolytic activity at 100 µM avathrin (fXIa): < 30% | percent inhibition of amidolytic activity at 100 µM avathrin (fXa): < 30% | percent inhibition of amidolytic activity at 100 µM avathrin (bovine chymotrypsin): < 30% | percent inhibition of amidolytic activity at 100 µM avathrin (tPA): < 30% | percent inhibition of amidolytic activity at 100 µM avathrin (fVIIa): < 30% | percent inhibition of amidolytic activity at 100 µM avathrin (plasmin): < 30% | percent inhibition of amidolytic activity at 100 µM avathrin (APC): < 30% | percent inhibition of amidolytic activity at 100 µM avathrin (kallikrein): < 30% | percent inhibition of amidolytic activity at 100 µM avathrin (urokinase): < 30% | percent inhibition of amidolytic activity at 100 µM avathrin (fXIIa): < 30% | IC50, inhibition of thrombin amidolytic activity (S2238) [4]: 6.95 nM | IC50, inhibition of thrombin amidolytic activity [10]: 6.95 nM | Ki [11]: 0.545 nM | Ki [9]: 0.545 nM

SGGHQTAVPRISKQGLGGDFEEIPSDEIIE (also called K10R-avathrin) [avathrin K10R]
fold gain in activity against avathrin [3]: 5 fold | IC50, inhibition of thrombin amidolytic activity (S2238) [4]: 1.15 nM | Ki [12]: 0.172 nM

SGGHQTAVPKIHKQGLGGDFEEIPSDEIIE (also called 512H) [avathrin S12H]
fold loss of potency against avathrin (amidolytic IC50) [3]: 2 fold | IC50, inhibition of thrombin amidolytic activity (S2238) [4]: 18.5 nM | Ki [12]: 1.23 nM

SGGHQTAVPKIAKQGLGGDFEEIPSDEIIE [avathrin S12A]
fold change of IC50 against avathrin [3]: 20 fold | fold drop in potency against avathrin (amidolytic IC50) [3]: > 10 fold | IC50, inhibition of thrombin amidolytic activity (S2238) [4]: 101 nM | Ki [7]: 6.08 nM

SDGHDTAVPKISKQGLGGDFEEIPSDEIIE [avathrin G2D, Q5D]
fold weaker inhibition against avathrin and QT26 [3]: < 2 fold | IC50, inhibition of thrombin amidolytic activity (S2238) [4]: 13 nM | Ki [12]: 0.932 nM

SDQGDVAIPKMYSTAPPGDFEEIPDDAIEE [UV003]
IC50, inhibition of thrombin amidolytic activity [1]: 0.6 nM | Ki [2]: 0.00421 nM

SDEAVRAIPKMYSTAPPGDFEEIPDDAIEEGCCC (Ultravariegin with C-terminal GCCC) [UV015]
IC50, inhibition of thrombin amidolytic activity [1]: 1 nM | Ki [2]: 0.00852 nM
